# Several values for one entry are separate records, joined by “and”; a condition that tells them apart may be missing. Equal entries are not always repeated. Where no end group is shown, it is not given here. cellulose membrane = derivatized cellulose membrane (SPOTs) solid support, attached to the peptide C-terminus
# T1: human GM-CSF overlapping 12-mer peptide, SEQ ID NO:35 (human)
# T1 construct: also called peptide #6
# T1 peptide: ARRLLNLSRDTA-{cellulose membrane}
# T2: human GM-CSF overlapping 12-mer peptide, SEQ ID NO:38 (human)
# T2 construct: also called peptide #15
# T2 peptide: RGSLTKLKGPLT-{cellulose membrane}
# T3: human GM-CSF overlapping 12-mer peptide, SEQ ID NO:37 (human)
# T3 construct: also called peptide #14
# T3 peptide: YKQGLRGSLTKL-{cellulose membrane}
# T4: human GM-CSF overlapping 12-mer peptide, SEQ ID NO:36 (human)
# T4 construct: also called peptide #13
# T4 peptide: TRLELYKQGLRG-{cellulose membrane}
# T5: SEB (UniProt P01552 28-266)
# T5 sequence: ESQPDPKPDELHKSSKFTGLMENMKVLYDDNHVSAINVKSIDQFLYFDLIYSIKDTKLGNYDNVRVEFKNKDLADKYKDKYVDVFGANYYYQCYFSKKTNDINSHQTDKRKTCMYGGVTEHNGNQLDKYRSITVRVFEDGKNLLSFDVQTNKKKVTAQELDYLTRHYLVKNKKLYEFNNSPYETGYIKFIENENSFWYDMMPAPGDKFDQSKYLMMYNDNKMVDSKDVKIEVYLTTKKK
# T6: human GM-CSF overlapping 12-mer peptide #23
# T6 construct: Only 'possibly' recognized by G9
# T6 peptide: KENLKDFLLVIP-{cellulose membrane}
# T7: h IL-3 (human, UniProt P08700 20-152)
# T7 sequence (looked up): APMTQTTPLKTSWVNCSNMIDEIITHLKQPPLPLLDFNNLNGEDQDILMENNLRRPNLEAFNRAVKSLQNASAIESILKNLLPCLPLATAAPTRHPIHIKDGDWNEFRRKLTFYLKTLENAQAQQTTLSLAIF
# T8: hIL-1a (human, UniProt P01583 113-271)
# T8 sequence (looked up): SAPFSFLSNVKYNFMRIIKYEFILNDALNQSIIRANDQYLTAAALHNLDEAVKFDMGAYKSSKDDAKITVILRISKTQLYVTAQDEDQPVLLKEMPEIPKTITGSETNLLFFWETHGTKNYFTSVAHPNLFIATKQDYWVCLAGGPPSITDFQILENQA
# T9: h IL-4 (human, UniProt P05112 25-153)
# T9 sequence (looked up): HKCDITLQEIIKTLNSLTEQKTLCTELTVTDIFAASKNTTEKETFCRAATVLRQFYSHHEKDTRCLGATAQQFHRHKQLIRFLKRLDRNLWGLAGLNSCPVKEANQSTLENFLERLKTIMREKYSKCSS
# T10: murine GM-CSF (murine, UniProt P01587 18-141)
# T10 construct: also called mGM-CSF
# T10 sequence (looked up): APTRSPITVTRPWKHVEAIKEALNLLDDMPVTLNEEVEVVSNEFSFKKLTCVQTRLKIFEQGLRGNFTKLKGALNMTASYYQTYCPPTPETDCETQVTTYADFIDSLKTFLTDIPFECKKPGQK
# T11: h IL-5 (human, UniProt P05113 20-134)
# T11 sequence (looked up): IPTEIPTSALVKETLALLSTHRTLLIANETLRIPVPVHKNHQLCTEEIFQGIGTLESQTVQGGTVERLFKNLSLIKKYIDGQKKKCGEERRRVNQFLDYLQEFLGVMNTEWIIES
# B1: anti-GM-CSF human IgG1 monoclonal antibody G9 (antibody, V domains shown)
# VH: EVQLVESGGGLVQPGGSLRLSCAASGFTFSRHWMHWLRQVPGKGPVWVSRINGAGTSITYADSVRGRFTISRDNANNTLFLQMNSLRADDTALYFCARANSVWFRGLFDYWGQGTPVTVSS
# VL: EIVLTQSPVTLSVSPGERVTLSCRASQSVSTNLAWYQQKLGQGPRLLIYGASTRATDIPARFSGSGSETEFTLTISSLQSEDFAVYYCQQYDKWPDTFGQGTKLEIKR
# notes: Fully human IgG1 kappa made by a hybridoma from B cells of a PAP patient; also called 10G9; 10G9.1
# B2: anti-GM-CSF human IgG1 monoclonal antibody E10 (antibody, V domains shown)
# VH: QVQLEESGGGVVQPGRSLRLSCAASGFTFTNYGMHWVRQAPGKGLEWLALISYDGNRQYYADSVKGRFTVSRDNPNNTLHLEMKSLRAEDSAIYYCARGAGVLLWFGDLSWFDPWGQGTLVTVSS
# VL: DIQMTQSPSNLSASVGDRVTITCRASQNINTWLAWYQHKPGKPPKLRIYQASTLESGVPSRFSGSGSGTIFTLTISSLQPDDFGTYYCQQNNSYPYTFGQGTKLEINR
# notes: Fully human IgG1 kappa made by a hybridoma from B cells of a PAP patient; also called 4E10; E10.20
# Tests used:
# [1] = molecular target: T12, human granulocyte-macrophage colony stimulating factor (GM-CSF) (human, UniProt P04141 18-144); assay: BIACORE
# T12 construct: The assays used recombinant human GM-CSF (in-house, PeproTech, or PE-labeled from R&D Systems); also called hGM-CSF; human GM-CSF
# [2] = molecular target: T1, human GM-CSF overlapping 12-mer …; assay: SPOT peptide membrane probed with G9, HRP goat anti-human IgG, ECL
# [3] = molecular target: T2, human GM-CSF overlapping 12-mer …; assay: as above
# [4] = molecular target: T3, human GM-CSF overlapping 12-mer …; assay: as above
# [5] = molecular target: T4, human GM-CSF overlapping 12-mer …; assay: as above
# SEB [6] = molecular target: T5, SEB; assay: antigen specific ELISA (subsequent study, data not shown)
# HEL [7] = molecular target: T13, HEL (UniProt P00698 19-147); assay: as above
# human mesothelin [8] = molecular target: T14, human mesothelin (human, UniProt Q13421 296-598, limits assumed); assay: as above
# T14 construct: also called human Mesothilin
# [9] = molecular target: T6, human GM-CSF overlapping 12-mer peptide …; assay: SPOTs peptide membrane, 1 mg/ml purified 10G9
# [10] = molecular target: T12, human granulocyte-macrophage colony …; assay: apparent affinity, method not given
# h IL-2 = h IL-2 (human, UniProt P60568 21-153); assay: antigen panel ELISA, antigen coated on the plate, O.D. 450
# h IL-3 = molecular target: T7, h IL-3; assay: as above
# hIL-1a = molecular target: T8, hIL-1a; assay: as above
# hIL-13 = hIL-13 (human, UniProt P35225 35-146, limits assumed); assay: as above
# IL-6 = IL-6 (Homo sapiens (Human), UniProt P05231 30-212); assay: as above
# h IL-4 = molecular target: T9, h IL-4; assay: as above
# BSA = molecular target: T15, BSA (bovine, UniProt P02769 25-607); assay: as above
# T15 construct: also called bovine serum albumin
# murine GM-CSF = molecular target: T10, murine GM-CSF; assay: as above
# h IL-5 = molecular target: T11, h IL-5; assay: as above
# SEB [11] = molecular target: T5, SEB; assay: antigen-specific ELISA (subsequent study, data not shown)
# HEL [12] = molecular target: T13, HEL; assay: as above
# human mesothelin [13] = molecular target: T14, human mesothelin; assay: as above
# T12 sequence (P04141 18-144): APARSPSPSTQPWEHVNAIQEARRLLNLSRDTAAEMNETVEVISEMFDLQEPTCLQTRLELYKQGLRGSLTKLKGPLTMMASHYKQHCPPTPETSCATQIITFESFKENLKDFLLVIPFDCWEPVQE
# T14 sequence (Q13421 other isoform, or with tags, fused parts or gaps limits assumed): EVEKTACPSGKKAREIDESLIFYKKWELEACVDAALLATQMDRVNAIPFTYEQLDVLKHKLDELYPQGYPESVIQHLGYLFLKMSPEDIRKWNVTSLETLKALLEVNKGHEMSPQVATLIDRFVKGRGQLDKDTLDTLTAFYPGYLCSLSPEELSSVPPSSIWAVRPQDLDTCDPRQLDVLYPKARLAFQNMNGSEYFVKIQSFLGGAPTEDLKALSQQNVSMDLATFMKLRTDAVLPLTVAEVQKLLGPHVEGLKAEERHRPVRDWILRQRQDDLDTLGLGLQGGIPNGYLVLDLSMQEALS
# T13 sequence (P00698 19-147): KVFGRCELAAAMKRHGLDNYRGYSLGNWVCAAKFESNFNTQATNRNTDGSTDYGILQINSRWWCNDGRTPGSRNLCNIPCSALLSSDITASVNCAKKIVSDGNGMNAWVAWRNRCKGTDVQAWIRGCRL
# T15 sequence (P02769 25-607 limits assumed): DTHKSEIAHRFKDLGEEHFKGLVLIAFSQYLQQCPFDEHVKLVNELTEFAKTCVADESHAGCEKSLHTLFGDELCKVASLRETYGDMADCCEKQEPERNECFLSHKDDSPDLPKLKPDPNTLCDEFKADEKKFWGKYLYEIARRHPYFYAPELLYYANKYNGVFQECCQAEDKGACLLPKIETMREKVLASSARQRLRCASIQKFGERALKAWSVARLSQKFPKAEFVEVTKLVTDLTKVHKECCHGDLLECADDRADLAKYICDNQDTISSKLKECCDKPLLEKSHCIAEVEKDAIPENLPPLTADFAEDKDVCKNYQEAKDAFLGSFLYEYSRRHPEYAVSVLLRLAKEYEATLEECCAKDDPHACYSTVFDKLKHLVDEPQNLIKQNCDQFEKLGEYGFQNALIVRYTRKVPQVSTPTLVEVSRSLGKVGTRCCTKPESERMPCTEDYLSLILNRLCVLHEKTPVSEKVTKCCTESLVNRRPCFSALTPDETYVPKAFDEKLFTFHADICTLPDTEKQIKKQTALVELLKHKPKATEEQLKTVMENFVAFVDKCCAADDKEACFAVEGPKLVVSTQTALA
# Sequence of hIL-13 (P35225 35-146 limits assumed): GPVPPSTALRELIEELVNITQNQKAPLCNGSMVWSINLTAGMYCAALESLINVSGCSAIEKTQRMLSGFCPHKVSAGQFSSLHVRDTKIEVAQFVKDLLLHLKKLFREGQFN
# Sequence of h IL-2 (P60568 21-153 limits assumed): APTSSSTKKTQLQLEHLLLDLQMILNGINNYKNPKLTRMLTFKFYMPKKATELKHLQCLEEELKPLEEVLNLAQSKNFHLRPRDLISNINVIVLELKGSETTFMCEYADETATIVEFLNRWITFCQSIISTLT
binder,measurement,setting,value
B1,Kd,[1],0.0109 nM and 0.011 nM to 0.017 nM (2×)
same,koff,[1],9.27e-05 s⁻¹
same,kon,[1],8.47e+06 M⁻¹ s⁻¹
same,binding result,[2],binds
same,binding result,[3],binds
same,binding result,[4],binds
same,binding result,[5],binds
same,binding result,SEB [6],no binding
same,binding result,HEL [7],no binding
same,binding result,human mesothelin [8],no binding
same,binding result,[9],binds
same,Kd,[10],0.014 nM
B2,Kd,[1],0.87 nM and ~0.87 nM
same,koff,[1],2.16e-05 s⁻¹
same,kon,[1],24700 M⁻¹ s⁻¹
same,binding result,h IL-2,no binding
same,binding result,h IL-3,no binding
same,binding result,hIL-1a,no binding
same,binding result,hIL-13,no binding
same,binding result,IL-6,no binding
same,binding result,h IL-4,no binding
same,binding result,BSA,no binding
same,binding result,murine GM-CSF,no binding
same,binding result,h IL-5,no binding
same,binding result,SEB [11],no binding
same,binding result,HEL [12],no binding
same,binding result,human mesothelin [13],no binding
